Results published in the nanobody polyreactivity screen of Harvey et al. (2022).

Test: yeast display, Sf9 membrane polyspecificity reagent, FACS + sequencing; frameworks hold sequencing errors
How it was run: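 A nanobody's polyreactivity label depends on the gate it was sorted from. Yeast display cells were stained with 10% biotinylated, detergent-solubilized Sf9 membrane reagent for 1 hour at 4 °C, enriched on streptavidin microbeads and sorted by FACS. The low and high (top ~1%) gates were set on anti-HA fluorescence for expression and streptavidin fluorescence for reagent binding.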

Sequence	polyreactivity (PSR sort gate)
QVQLVESGGGLVQAGGSLRLSCAASGSIFYYAMGWYRQAPGKERELVADISTGGSTHYADSVKGRFTISRDNAKNTVYLQMYSLKPEDTAVYYCAKEAWRYRLNFRYNYWVQGTQVTVSS	low polyreactivity
QVQLVESGGGLVQAGGSLRLSCAASGRTFYRNTMGWYRQAPGKERELVAGISYSGGSTYYADSVKGRFTISRDNAKNTVYLQMNSLKPEDTAVYYCATVRRYGYGYDYWGQGTQVTVSS	high polyreactivity
QVQLVESGGGLVQAGGSLRLSCAASGSIFKRNVMGWYRQAPGKERELVAAITWSGASTYYADSVKGRFTISRDNAKITVYLQMNSLKPEDTAVYYCAARGPSRRRDGSDYWGQGTQVTVSS	high polyreactivity
QVQLVESGGGLVQAGGSLRLSCAASGRTFQYYAVGWYRQAPGKERELVAAITSGGSTYYADSVKGRFTISRDNAKNTVYLQMNSLKPEDTAVYYCAAKRNVQLGYTVQSLYDYWGLGTQVTVSS	low polyreactivity
QVQLVESGGGLVQAGGSHRLSCAASGRTFGHNAMGWYRQAPGKEMEFVASIRSGGITDYADSVKGRFTISRDNAKNTVYLQMNSLKPEDTAVYYCAADVLDWYDLLRDDYWGQGTQVTVSS	low polyreactivity
QVQLVESGGGLVQAGGSLRLSCAASGNTFYGYAMGWYRQAPGKERELVASITLSGDSTYYADSVKGRFTISRDNAKNTVYLQMNSLKPADTAVYYCAGVYTYPLGYYHYTYDYWGQGTQVTVSS	low polyreactivity
QVQLVESGGGLVQAGGSLRLSCAASGSIFVLNAMGWYRQAPGKERELVATITWRGGSTYYADSVKGRFTISRDNAKNTVYLQMNSLKPEDTAVYYCAKVDIRHHRFYYWGHGTQVTVSS	low polyreactivity
QVQLVESGGGLVQAGGSLRLSCAASGRTYFYNTMGWYRQAPGKESELVARITRGGSTYYADSVKGRFTISRDNAKNTVYLQMPSLKPEDTAFYYCAAGYWRGYFLYGFDYWGQGTQVTVSS	high polyreactivity
QVQLVESGGGLVQAGGSLRLSCAASGSIFVWNAMGWYRQAPGKERELVARIRYSSNTYYADSVKGRFTISRDNAKNTVYLQMNSLKPEDTAVYYCAAGSTRYAGWTYNYWGQGTQVTVSS	high polyreactivity
QVQLVESGGGLVQAGGSLRLSCAASGSTFSYYAMGWYRQAPGKERELVASITWNGARTYYADSVKGRFTISRDNAKNTVYLQMNSLKPEDTAVYYCADRHKYAFWTAFGNYWGQGTQVTVSS	high polyreactivity
QVQLVESGGGLVQAGGSLRLSCDASGFTFYGNAMGWYRQAPGKERELVAAISGRGGSTYYADSVKGRFTISRDNAKNTVYLQMNSLKPEDTAVYYCAIYVSWPLYYYWGQGTQVTVSS	low polyreactivity
QVELEESGGGLVQAGGSLRLSCAASGFIFRYYALGWYRPGPGTVRELVAVISSSGSTHYADSVKGRITISRDNAKNTVYLQMNSLKPEDTAVYYCAADGNVWSGPRYDYWGQGTQLTVSS	low polyreactivity
QVQLVESGGGLVQAGGSLRLSCAASGRIFYHNAMGWYRQAPGKERELVAAITWSGGSTYYADSVKGRFTISRDNAKNTVYLQMNSLKTDDTAVYYCNALSNRYYSKLGSWGQGTQVTVSS	high polyreactivity
QVQIEESGGGLVQAGGSLRLICAASGRIFLPYVMGWYRQAPGKERELVATITFGRSTTYADSVKGRFTISRDNAKNTVYLQMNCLKPEDTAFYYCNALSALAVEDGYWGHGTQVTVSS	low polyreactivity
QVQLVESGGGLVQAGGSLRLSSAASGRTTKVYAMGWYRQGPGKPRELVARITSSGVRRYYADSVKGRFTISRDNAKNTVYLHMNSLKPEDTAVYYCGKDARALWLHSGIYDYSGQGTQVTVSS	low polyreactivity
QVQLVESGGGLVQAGGSLRLSCAASGSIFTINAMGWYRQAPGIERALVAAIRSGGGTNYADSVKGRFTISRDNAKNTVYFQMNSLKPEDTAVYYCAADLWAGKYGEYDYWGQGTQVTVSS	high polyreactivity
QVHLVESGGGLVQAGGSLRLSCAASGITVGSYAMGWYRQAPGKERELVAAITSGGGTNYADSVKGRFTISRDNAKNTVYLEMKSLKPEDTAVYYCAARYYYLGTRYGYWGQGTQVTVSS	low polyreactivity
QVQLVESGGGLVQAGGSLRLSCAASGRIFSYYTMGWYRQAPGKEREMVAAITWNGGSTYYADSVKGRFTISRDNAKNTVYLQMNSLKPEDTGVYYCNRDVRYVGPSGFDYWGQGTQVTVSS	high polyreactivity
QVQLVESGGGLVQAGGSLRLSCAASGGICRVYAMGWYRQAPGKERELVAAISRSGSSTYYADSVKGRFTISRDNAKNTVYLQMNSLKPEDTAVYYCNAYSQYWLGNNYWGQGTQVTVSS	high polyreactivity
QVQLVESGGGLVQAGGSLRLSCAASGSTFPSYAMGWSRQAPGKERELVAAISRSGGSTYYADSVKGRFTISRDNAKNTVYLQMISLKPEDTAVYYCAARGHLRYESDYWGQGTQVTVSS	high polyreactivity
QVHLVESGGGLVQAGGRLRLSCAASGRIFGTNAMGWYRQAPGKERELVATITRGGGNTYYADSVKGRFTISRDKAKNTVYLQRNSLKPEDTAVYYCAAKFHRFAWFSHYDYWGQGTQVTVSS	low polyreactivity
QDQLVESGGGLVQAGGSLRLSCAASGRIFPWYTMGWYRQAPGKERELVAVISSGGRTHYADSVKGRFTISRDNAKNTVYLLMNSLKPEDTAVYYCAAESRYQRYDYWGQGTKVTVSS	high polyreactivity
QVQLVESGGGLVQAGGSLRLSCAASGSIFYYNAMGWYRQAPGKERELVAAISSSGGSTYYADSVKGRFTISRDNAKNTVYLQMNSLKPEDTAVYYCAAKLRHWAHHTKYDYWGQGTQVTVSS	low polyreactivity
QDQLVESGGGLVQAGGSLRLSCAASGRTFAAYAMGWYRQAPGKERELVATIRRGGTTDYADSVKGRFTISRDNAKNTVYLQMNSLKPEDTAVYYCNARSRTYRTRRYDYWGQGTQVTVSS	high polyreactivity
